# Test results published in patent US20170342126A1 (MAYO FOUNDATION FOR MEDICAL EDUCATION AND RESEARCH, published 2017).
# Read-outs that look alike come from different tables or passages of the source.
# T1: HLA-DR DRB1*0802 (human)
# T1 chain 1: not shown
# T1 chain 2: not shown
# T2: HLA-DR DRB1*1302 (human)
# T2 chain 1: not shown
# T2 chain 2: not shown
# T3: HLA-DR DRB1*0404 (human)
# T3 chain 1: not shown
# T3 chain 2: not shown
# T4: HLA-DR DRB1*0405 (human)
# T4 chain 1: not shown
# T4 chain 2: not shown
# T5: HLA-DR DRB1*0401 (human)
# T5 chain 1: not shown
# T5 chain 2: not shown
# T6: HLA-DR DRB1*0101 (human)
# T6 chain 1: not shown
# T6 chain 2: not shown
# T7: HLA-DR DRB4*0101 (human)
# T7 chain 1: not shown
# T7 chain 2: not shown
# Columns and labels:
# HLA-DR DRB1*1302 (human) [1] = experiment: radioligand inhibition, purified HLA-DR
# HLA-DR DRB5*0101 (human) = experiment: radioligand inhibition, purified HLA-DR
# HLA-DR DRB1*0701 = HLA-DR DRB1*0701 (human); experiment: radioligand inhibition, purified HLA-DR
# [2] = molecular target: purified HLA-DR molecule DRB5*0101 (human); experiment: radioligand inhibition, purified HLA-DR
# [3] = molecular target: purified HLA-DR molecule DRB1*1302 (human); experiment: radioligand inhibition, purified HLA-DR
# HLA-DR DRB1*1501 (human) = experiment: radioligand inhibition, purified HLA-DR
# HLA-DR DRB1*0901 (human) = experiment: radioligand inhibition, purified HLA-DR
# [4] = molecular target: purified HLA-DR molecule DRB1*0901 (human); experiment: radioligand inhibition, purified HLA-DR
# HLA-DR DRB1*0802 (human) = molecular target: T1, HLA-DR DRB1*0802 (human); experiment: radioligand inhibition, purified HLA-DR; conditions: remark: other sources report otherwise
# [5] = molecular target: at least four different HLA-DR variants (of 15 different purified HLA-DR molecules); experiment: radioligand inhibition, purified HLA-DR
# HLA-DR DRB1*1302 (human) [6] = molecular target: T2, HLA-DR DRB1*1302 (human); experiment: radioligand inhibition, purified HLA-DR; conditions: remark: other sources report otherwise
# HLA-DR DRB1*0404 (human) = molecular target: T3, HLA-DR DRB1*0404 (human); experiment: radioligand competition, purified HLA-DR; conditions: remark: other sources report otherwise
# HLA-DR DRB1*0405 (human) = molecular target: T4, HLA-DR DRB1*0405 (human); experiment: radioligand competition, purified HLA-DR; conditions: remark: other sources report otherwise
# HLA-DR DRB1*0401 (human) [7] = molecular target: T5, HLA-DR DRB1*0401 (human); experiment: radioligand competition, purified HLA-DR; conditions: remark: other sources report otherwise
# HLA-DR DRB1*0101 (human) = molecular target: T6, HLA-DR DRB1*0101 (human); experiment: radioligand competition, purified HLA-DR; conditions: remark: other sources report otherwise
# HLA-DR DRB1*0401 (human) [8] = molecular target: T5, HLA-DR DRB1*0401 (human); experiment: radioligand inhibition, purified HLA-DR; conditions: remark: other sources report otherwise
# HLA-DR DRB4*0101 (human) = molecular target: T7, HLA-DR DRB4*0101 (human); experiment: radioligand inhibition, purified HLA-DR; conditions: remark: other sources report otherwise
molecule,measurement,setting,value
"Peptide 9019.0126, CEA.354",IC50,HLA-DR DRB1*1302 (human) [1],1.92 µM
same,IC50,HLA-DR DRB5*0101 (human),2.28 µM
"Peptide 9019.0005, CEA.122",IC50,HLA-DR DRB1*1302 (human) [1],9.96 µM
same,IC50,HLA-DR DRB1*0701,6.34 µM
Peptide 9019.0126 (CEA.354),IC50,[2],2.28 µM
same,IC50,[3],1.92 µM
"Peptide 9019.0009, Cyclin D1.129",IC50,HLA-DR DRB1*1302 (human) [1],3.49 µM
"Peptide 9019.0115, CEA.126",IC50,HLA-DR DRB1*1501 (human),0.376 µM
same,IC50,HLA-DR DRB1*1302 (human) [1],0.394 µM
"Peptide 9019.0118, CEA.176",IC50,HLA-DR DRB1*0901 (human),1.91 µM
Peptide 9019.0118 (CEA.176),IC50,[4],1.91 µM
"HNQVRQVPLQRLRIV [Peptide 9019.0034, Her2/neu.88]",IC50,HLA-DR DRB1*0802 (human),0.095 µM
same,IC50,[5],< 1 µM
"TTPVTGASPGGLREL [Peptide 9019.0037, Her2/neu.126]",IC50,HLA-DR DRB1*1302 (human) [6],0.605 µM
VCGIQNSVSANRSDP [Peptide 9019.0135],IC50,HLA-DR DRB1*0404 (human),0.026 µM
same,IC50,HLA-DR DRB1*0405 (human),1.85 µM
KLCIYTDNSIRPEEL [Peptide 9019.0159],IC50,HLA-DR DRB1*0401 (human) [7],0.095 µM
same,IC50,HLA-DR DRB1*0405 (human),3.17 µM
"AQTFVALCATDVKFI [Peptide 9019.0168, Cyclin D1.182]",IC50,[5],< 1 µM
TEILKGGVLIQRNPQ [Peptide 9019.0039],IC50,HLA-DR DRB1*0101 (human),0.071 µM
CYGLGMEHLREVRAV [Peptide 9019.0044],IC50,HLA-DR DRB1*0101 (human),0.139 µM
KELAVFREKVTEQHR [9019.0186],IC50,HLA-DR DRB1*0401 (human) [8],0.021 µM
SDSVILNVLYGPDAP [Peptide 9019.0119],IC50,HLA-DR DRB1*0405 (human),1.45 µM
GYVIGTQQATPGPAY [9019.0110],IC50,HLA-DR DRB4*0101 (human),0.0063 µM
"GTDMKLRLPASPETH [Peptide 9019.0027, Her2/neu.28]",IC50,HLA-DR DRB1*0701,6.81 µM
